We go through one molecule from article PMC10018337.

Holding throughout (experiment): EMSA
(In general: In EMSA bound probe runs differently from free probe, usually more slowly.)

The target in one series is T1, CeMETT10-FLΔL_RRR/7E (Caenorhabditis elegans, UniProt Q09357 1-479, R360E;A361E;R362E;K363E;R364E;A365E;K366E;del386-430).
T1 sequence: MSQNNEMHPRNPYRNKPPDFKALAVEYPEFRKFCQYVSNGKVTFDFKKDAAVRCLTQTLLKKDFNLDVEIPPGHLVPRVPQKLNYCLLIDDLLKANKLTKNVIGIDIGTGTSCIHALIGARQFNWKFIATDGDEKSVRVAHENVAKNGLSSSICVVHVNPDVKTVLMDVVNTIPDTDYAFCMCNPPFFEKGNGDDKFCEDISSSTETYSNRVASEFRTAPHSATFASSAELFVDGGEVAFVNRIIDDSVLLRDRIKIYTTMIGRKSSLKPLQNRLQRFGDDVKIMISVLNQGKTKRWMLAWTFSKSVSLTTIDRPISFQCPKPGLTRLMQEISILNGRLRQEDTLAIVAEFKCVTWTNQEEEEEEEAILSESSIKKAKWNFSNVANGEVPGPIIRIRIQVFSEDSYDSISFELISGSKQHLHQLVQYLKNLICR

In another series the target is T2, CeMETT10-MTD (Caenorhabditis elegans, UniProt Q09357 1-314).
T2 sequence: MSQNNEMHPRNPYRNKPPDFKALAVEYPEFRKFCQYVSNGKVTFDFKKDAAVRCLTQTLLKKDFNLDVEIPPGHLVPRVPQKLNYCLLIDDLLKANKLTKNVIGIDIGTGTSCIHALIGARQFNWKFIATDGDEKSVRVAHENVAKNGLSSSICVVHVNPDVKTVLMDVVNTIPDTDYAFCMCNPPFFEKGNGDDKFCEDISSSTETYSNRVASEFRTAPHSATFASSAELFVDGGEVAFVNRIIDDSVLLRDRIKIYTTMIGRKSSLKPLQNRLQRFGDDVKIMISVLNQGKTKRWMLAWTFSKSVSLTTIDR

In the next series the target is T3, CeMETT10-FLΔL (Caenorhabditis elegans, UniProt Q09357 1-479, del386-430).
T3 sequence: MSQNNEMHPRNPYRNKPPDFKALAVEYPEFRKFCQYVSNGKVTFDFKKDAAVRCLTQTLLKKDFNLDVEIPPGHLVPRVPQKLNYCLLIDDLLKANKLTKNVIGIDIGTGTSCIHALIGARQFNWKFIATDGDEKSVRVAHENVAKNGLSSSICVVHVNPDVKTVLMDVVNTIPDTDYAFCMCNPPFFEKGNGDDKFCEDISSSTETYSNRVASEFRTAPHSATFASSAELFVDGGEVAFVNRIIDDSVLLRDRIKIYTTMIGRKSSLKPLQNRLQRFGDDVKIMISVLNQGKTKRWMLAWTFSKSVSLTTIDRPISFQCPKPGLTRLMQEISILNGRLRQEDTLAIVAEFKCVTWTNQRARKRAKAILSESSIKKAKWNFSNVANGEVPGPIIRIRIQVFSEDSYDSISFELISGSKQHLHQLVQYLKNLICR

B1: sams-hp-ls (structured_RNA)
RNA: GGCAACAAUAUGUUUCUUUACCUGUUACAACGGUUACUUUGAUUACAGAAACGGUGACUAAAACGGGUAUGAUCAUGUUGUGCCC
For B1, the Kd (in general, the equilibrium constant for the complex coming apart) with CeMETT10-FLΔL_RRR/7E was found to be 8.3 µM; with CeMETT10-MTD it was 22.3 µM; in the series with CeMETT10-FLΔL, 140 nM.
